Measurements from paper PMC3752671 (Journal of structural biology, 2013).

Legend:
cryo-EM structure = biological target: the molecule itself; assay: cryo-EM structure
[1] = biological target: T1, recombinant porcine amelogenin rP172 (porcine), P45561; assay: cryo-EM structure; details: remark: other sources report otherwise
T1 chain: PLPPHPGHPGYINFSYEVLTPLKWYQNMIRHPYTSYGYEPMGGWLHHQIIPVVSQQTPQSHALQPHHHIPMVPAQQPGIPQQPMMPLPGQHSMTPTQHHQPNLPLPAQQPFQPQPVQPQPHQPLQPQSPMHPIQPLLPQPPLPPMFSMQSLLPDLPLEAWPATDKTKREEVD

Row | Binder | stoichiometry N (cryo-EM structure) | stoichiometry N [1]
1 | full-length native porcine amelogenin P173 (natural protein, UniProt P45561 17-189, looked up, phosphoserine at 16 (S-16); degree of phosphorylation ~85% by mass spectrometry) MPLPPHPGHPGYINFSYEVLTPLKWYQNMIRHPYTSYGYEPMGGWLHHQIIPVVSQQTPQSHALQPHHHIPMVPAQQPGIPQQPMMPLPGQHSMTPTQHHQPNLPLPAQQPFQPQPVQPQPHQPLQPQSPMHPIQPLLPQPPLPPMFSMQSLLPDLPLEAWPATDKTKREEVD | 12 | –
2 | recombinant porcine amelogenin rP172, P45561 18-189 (natural protein) PLPPHPGHPGYINFSYEVLTPLKWYQNMIRHPYTSYGYEPMGGWLHHQIIPVVSQQTPQSHALQPHHHIPMVPAQQPGIPQQPMMPLPGQHSMTPTQHHQPNLPLPAQQPFQPQPVQPQPHQPLQPQSPMHPIQPLLPQPPLPPMFSMQSLLPDLPLEAWPATDKTKREEVD | – | 12
